Source: publication PMC5564220 (Cell reports, 2017)
“And” between values parts separate entries of the source, which are not always exact repeats. Identical values can stand only once.

What was measured:
[1] = target: T1, Rvb1/Rvb2 complex (untagged hexamer) (S. cerevisiae, UniProt Q03940 1-463; Q12464 1-471); experiment: native MS
[2] = target: T1, Rvb1/Rvb2 complex (untagged hexamer); experiment: SEC-MALS
[3] = target: T2, Rvb2 (S. cerevisiae, UniProt Q12464 1-471); experiment: intact denatured mass spectrometry
[4] = target: T2, Rvb2; experiment: native MS

T1 sequence (Q12464 whole entry, one chain of several): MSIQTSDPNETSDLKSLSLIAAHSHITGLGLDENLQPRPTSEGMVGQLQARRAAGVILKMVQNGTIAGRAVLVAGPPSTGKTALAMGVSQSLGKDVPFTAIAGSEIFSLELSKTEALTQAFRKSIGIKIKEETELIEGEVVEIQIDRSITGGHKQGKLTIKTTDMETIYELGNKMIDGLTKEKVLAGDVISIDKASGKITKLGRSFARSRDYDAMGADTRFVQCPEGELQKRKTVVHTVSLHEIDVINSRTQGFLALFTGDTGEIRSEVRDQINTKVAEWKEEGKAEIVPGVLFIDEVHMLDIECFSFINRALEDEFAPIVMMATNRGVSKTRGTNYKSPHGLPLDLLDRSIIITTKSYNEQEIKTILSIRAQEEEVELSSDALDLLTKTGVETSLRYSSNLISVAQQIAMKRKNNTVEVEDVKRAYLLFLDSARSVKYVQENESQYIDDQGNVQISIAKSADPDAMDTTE
T2 sequence (Q12464 whole entry): as the sequence (Q12464 whole entry, one chain of several) above

Row | stoichiometry N [2] | stoichiometry N [3] | stoichiometry N [4] | Binder | stoichiometry N [1]
1 | ≥ 2 copies of Ino80INS per Rvb1/Rvb2 dodecamer | – | – | MBP-Ino80INS (insertion domain of the Ino80 ATPase, residues 1022-1294, MBP fusion with C-terminal histidine tag) (domain or fragment, yeast, UniProt P53115 1022-1294, looked up) VDSPFSFTTFGKTTSMLTASVANNNSSVISNSNMNLSSMSSNNISNGKFTDLIYSSRNPIKYSLPRLIYEDLILPNYNNDVDIANKLKNVKFNIFNPSTNYELCLFLSKLTGEPSLNEFFRVSTTPLLKRVIERTNGPKNTDSLSFKTITQELLEVTRNAPSEGVMASLLNVEKHAYEREYLNCIQRGYHPNVSAPPVTIEVLGSSHVTNSINNELFDPLISQALSDIPAITQYNMHVKKGIPVEDFPKTGLFPEPLNKNFSSNISMPSMDRF | 3 copies of Ino80INS per Rvb1/Rvb2 dodecamer and 1 copies of MBP-Ino80INS per Rvb1/Rvb2 hexamer and 2 copies of Ino80INS per Rvb1/Rvb2 dodecamer
2 | – | 1 Rvb1 per Rvb2 (3:3) | 1 Rvb1 per Rvb2 (3:3 in the hexamer) | Rvb1 (enzyme, S. cerevisiae, UniProt Q03940 1-463, looked up) MVAISEVKENPGVNSSNSGAVTRTAAHTHIKGLGLDESGVAKRVEGGFVGQIEAREACGVIVDLIKAKKMSGRAILLAGGPSTGKTALALAISQELGPKVPFCPLVGSELYSVEVKKTETLMENFRRAIGLRIKETKEVYEGEVTELTPEDAENPLGGYGKTISHVIVGLKSAKGTKTLRLDPTIYESIQREKVSIGDVIYIEANTGAVKRVGRSDAYATEFDLETEEYVPLPKGEVHKKKEIVQDVTLHDLDVANARPQGGQDVISMMGQLLKPKKTEITEKLRQEVNKVVAKYIDQGVAELIPGVLFIDEVNMLDIEIFTYLNKALESNIAPVVVLASNRGMTTVRGTEDVISPHGVPPDLIDRLLIVRTLPYDKDEIRTIIERRATVERLQVESSALDLLATMGTETSLRYALQLLAPCGILAQTSNRKEIVVNDVNEAKLLFLDAKRSTKILETSANYL | –
